Changes are numbered by the printed parent chain. Names may count otherwise.
T1: human beta-Klotho (KLB) (human, UniProt Q86Z14 53-997)
T1 construct: bought protein, used as analyte in the off-rate screening; also called human KLB; β-Klotho
T1 sequence (looked up): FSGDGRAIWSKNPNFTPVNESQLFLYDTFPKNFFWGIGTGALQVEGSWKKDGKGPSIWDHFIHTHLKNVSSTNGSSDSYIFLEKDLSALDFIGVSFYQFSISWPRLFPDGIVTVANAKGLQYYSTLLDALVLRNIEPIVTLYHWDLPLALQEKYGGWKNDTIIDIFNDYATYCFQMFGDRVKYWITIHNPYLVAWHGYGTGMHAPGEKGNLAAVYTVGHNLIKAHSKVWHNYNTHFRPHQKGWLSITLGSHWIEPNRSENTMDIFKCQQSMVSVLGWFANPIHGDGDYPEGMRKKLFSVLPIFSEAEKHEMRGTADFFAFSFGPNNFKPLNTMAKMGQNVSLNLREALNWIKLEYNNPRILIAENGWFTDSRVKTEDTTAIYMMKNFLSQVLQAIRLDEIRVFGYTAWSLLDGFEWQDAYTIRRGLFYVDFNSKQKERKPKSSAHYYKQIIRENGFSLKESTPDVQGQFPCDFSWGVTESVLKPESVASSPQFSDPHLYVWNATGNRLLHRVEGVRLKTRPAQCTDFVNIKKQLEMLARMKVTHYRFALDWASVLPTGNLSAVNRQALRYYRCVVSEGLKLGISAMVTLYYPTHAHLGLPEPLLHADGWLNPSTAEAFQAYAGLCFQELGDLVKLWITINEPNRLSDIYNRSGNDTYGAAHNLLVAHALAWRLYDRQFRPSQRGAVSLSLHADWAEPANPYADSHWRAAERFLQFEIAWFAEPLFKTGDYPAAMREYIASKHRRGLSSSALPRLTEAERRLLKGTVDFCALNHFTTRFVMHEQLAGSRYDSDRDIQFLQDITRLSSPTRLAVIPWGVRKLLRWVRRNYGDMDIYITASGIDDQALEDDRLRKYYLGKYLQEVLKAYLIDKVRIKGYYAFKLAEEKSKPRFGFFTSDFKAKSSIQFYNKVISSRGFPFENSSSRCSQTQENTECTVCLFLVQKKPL

B1: 16H7 variant with light chain substitution P54W (antibody, V domains shown)
VH: not shown
VL: SYVLTQPPSVSVAPGQTARITCGGNNIGSESVHWYQQKPGQAPVLVVYDDSDRWSGIPERFSGSNSGNTATLTISRVEAGDEADYYCQVWDGNSDHVVFGGGTKLTVLG
B2: 16H7 variant with light chain substitution S55D (antibody, V domains shown)
VH: not shown
VL: B1 VL with W54P, S55D
B3: 16H7 variant with light chain substitution S51D (antibody, V domains shown)
VH: not shown
VL: B1 VL with S51D, W54P
B4: 16H7 variant with light chain substitution S55I (antibody, V domains shown)
VH: not shown
VL: B1 VL with W54P, S55I
B5: 16H7 variant with light chain substitution P54Y (antibody, V domains shown)
VH: not shown
VL: B1 VL with W54Y
B6: 16H7 variant with light chain substitution R53S (antibody, V domains shown)
VH: not shown
VL: B1 VL with R53S, W54P
B7: 16H7 variant with light chain substitution S55R (antibody, V domains shown)
VH: not shown
VL: B1 VL with W54P, S55R
B8: 16H7 variant with light chain substitution S55L (antibody, V domains shown)
VH: not shown
VL: B1 VL with W54P, S55L
B9: 16H7 variant with light chain substitution R53I (antibody, V domains shown)
VH: not shown
VL: B1 VL with R53I, W54P
B10: 16H7 variant with light chain substitution S55Y (antibody, V domains shown)
VH: not shown
VL: B1 VL with W54P, S55Y
B11: 16H7 variant with light chain substitution R53K (antibody, V domains shown)
VH: not shown
VL: B1 VL with R53K, W54P
B12: 16H7 variant with light chain substitution R53P (antibody, V domains shown)
VH: not shown
VL: B1 VL with R53P, W54P
B13: 16H7 variant with light chain substitution R53L (antibody, V domains shown)
VH: not shown
VL: B1 VL with R53L, W54P
B14: 16H7 variant with light chain substitution R53M (antibody, V domains shown)
VH: not shown
VL: B1 VL with R53M, W54P
B15: 16H7 variant with light chain substitution S55H (antibody, V domains shown)
VH: not shown
VL: B1 VL with W54P, S55H
B16: 16H7 variant with light chain substitution R53H (antibody, V domains shown)
VH: not shown
VL: B1 VL with R53H, W54P
B17: 16H7 variant with light chain substitution R53C (antibody, V domains shown)
VH: not shown
VL: B1 VL with R53C, W54P
B18: 16H7 variant with light chain substitution V98K (antibody, V domains shown)
VH: not shown
VL: B1 VL with W54P, V98K
B19: 16H7 variant with light chain substitution S55V (antibody, V domains shown)
VH: not shown
VL: B1 VL with W54P, S55V
B20: 16H7 variant with light chain substitution V98T (antibody, V domains shown)
VH: not shown
VL: B1 VL with W54P, V98T
B21: 16H7 variant with light chain substitution S51C (antibody, V domains shown)
VH: not shown
VL: B1 VL with S51C, W54P
B22: 16H7 variant with light chain substitution R53T (antibody, V domains shown)
VH: not shown
VL: B1 VL with R53T, W54P
B23: 16H7 variant with light chain substitution S51G (antibody, V domains shown)
VH: not shown
VL: B1 VL with S51G, W54P
B24: 16H7 variant with light chain substitution S55E (antibody, V domains shown)
VH: not shown
VL: B1 VL with W54P, S55E
B25: 16H7 variant with light chain substitution V98L (antibody, V domains shown)
VH: not shown
VL: B1 VL with W54P, V98L
B26: 16H7 variant with light chain substitution S55T (antibody, V domains shown)
VH: not shown
VL: B1 VL with W54P, S55T
B27: 16H7 variant with light chain substitution V98G (antibody, V domains shown)
VH: not shown
VL: B1 VL with W54P, V98G
B28: 16H7 variant with light chain substitution V98H (antibody, V domains shown)
VH: not shown
VL: B1 VL with W54P, V98H
B29: 16H7 variant with light chain substitution R53A (antibody, V domains shown)
VH: not shown
VL: B1 VL with R53A, W54P
B30: 16H7 variant with light chain substitution S55C (antibody, V domains shown)
VH: not shown
VL: B1 VL with W54P, S55C
B31: 16H7 variant with light chain substitution S55P (antibody, V domains shown)
VH: not shown
VL: B1 VL with W54P, S55P
B32: 16H7 variant with light chain substitution S51V (antibody, V domains shown)
VH: not shown
VL: B1 VL with S51V, W54P
B33: 16H7 variant with light chain substitution S55G (antibody, V domains shown)
VH: not shown
VL: B1 VL with W54P, S55G
B34: 16H7 variant with light chain substitution S51A (antibody, V domains shown)
VH: not shown
VL: B1 VL with S51A, W54P
B35: 16H7 variant with light chain substitution S51E (antibody, V domains shown)
VH: not shown
VL: B1 VL with S51E, W54P
B36: 16H7 variant with light chain substitution V98A (antibody, V domains shown)
VH: not shown
VL: B1 VL with W54P, V98A
B37: 16H7 variant with light chain substitution R53Q (antibody, V domains shown)
VH: not shown
VL: B1 VL with R53Q, W54P
B38: 16H7 variant with light chain substitution S55N (antibody, V domains shown)
VH: not shown
VL: B1 VL with W54P, S55N
B39: 16H7 variant with light chain substitution S55F (antibody, V domains shown)
VH: not shown
VL: B1 VL with W54P, S55F

Legend:
[1] = target: human FGFR1c/KLB receptor complex on iLite FGF21 Assay Ready Cells (human, UniProt P11362 22-822; Q86Z14 1-1044); test: cell-based or functional assay; as to Mean E max (%): reference of the scale not given here
Sequence of human FGFR1c/KLB receptor complex on iLite FGF21 Assay Ready Cells (P11362 22-822, chain 1 of 2): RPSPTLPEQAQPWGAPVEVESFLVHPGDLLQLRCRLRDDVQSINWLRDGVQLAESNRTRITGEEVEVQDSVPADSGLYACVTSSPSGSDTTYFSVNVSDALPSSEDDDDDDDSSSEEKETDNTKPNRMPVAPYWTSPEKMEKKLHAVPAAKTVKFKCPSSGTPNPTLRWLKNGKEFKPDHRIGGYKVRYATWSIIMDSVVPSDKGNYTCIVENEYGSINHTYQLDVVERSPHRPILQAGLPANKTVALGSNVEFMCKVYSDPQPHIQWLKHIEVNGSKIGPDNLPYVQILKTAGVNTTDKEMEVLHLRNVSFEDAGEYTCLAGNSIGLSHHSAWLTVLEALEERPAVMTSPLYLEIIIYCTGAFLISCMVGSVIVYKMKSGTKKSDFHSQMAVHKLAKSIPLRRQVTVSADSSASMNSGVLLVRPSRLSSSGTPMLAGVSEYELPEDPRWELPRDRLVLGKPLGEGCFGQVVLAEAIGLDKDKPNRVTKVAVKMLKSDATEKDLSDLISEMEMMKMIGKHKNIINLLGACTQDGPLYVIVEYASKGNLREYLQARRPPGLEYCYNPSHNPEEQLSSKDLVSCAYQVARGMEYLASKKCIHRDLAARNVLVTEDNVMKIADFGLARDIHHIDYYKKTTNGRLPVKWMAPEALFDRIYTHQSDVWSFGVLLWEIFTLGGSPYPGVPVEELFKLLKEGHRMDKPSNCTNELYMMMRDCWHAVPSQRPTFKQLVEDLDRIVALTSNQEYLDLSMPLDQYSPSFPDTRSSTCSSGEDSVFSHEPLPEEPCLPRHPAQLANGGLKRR
Sequence of human FGFR1c/KLB receptor complex on iLite FGF21 Assay Ready Cells (Q86Z14 whole entry, chain 2 of 2): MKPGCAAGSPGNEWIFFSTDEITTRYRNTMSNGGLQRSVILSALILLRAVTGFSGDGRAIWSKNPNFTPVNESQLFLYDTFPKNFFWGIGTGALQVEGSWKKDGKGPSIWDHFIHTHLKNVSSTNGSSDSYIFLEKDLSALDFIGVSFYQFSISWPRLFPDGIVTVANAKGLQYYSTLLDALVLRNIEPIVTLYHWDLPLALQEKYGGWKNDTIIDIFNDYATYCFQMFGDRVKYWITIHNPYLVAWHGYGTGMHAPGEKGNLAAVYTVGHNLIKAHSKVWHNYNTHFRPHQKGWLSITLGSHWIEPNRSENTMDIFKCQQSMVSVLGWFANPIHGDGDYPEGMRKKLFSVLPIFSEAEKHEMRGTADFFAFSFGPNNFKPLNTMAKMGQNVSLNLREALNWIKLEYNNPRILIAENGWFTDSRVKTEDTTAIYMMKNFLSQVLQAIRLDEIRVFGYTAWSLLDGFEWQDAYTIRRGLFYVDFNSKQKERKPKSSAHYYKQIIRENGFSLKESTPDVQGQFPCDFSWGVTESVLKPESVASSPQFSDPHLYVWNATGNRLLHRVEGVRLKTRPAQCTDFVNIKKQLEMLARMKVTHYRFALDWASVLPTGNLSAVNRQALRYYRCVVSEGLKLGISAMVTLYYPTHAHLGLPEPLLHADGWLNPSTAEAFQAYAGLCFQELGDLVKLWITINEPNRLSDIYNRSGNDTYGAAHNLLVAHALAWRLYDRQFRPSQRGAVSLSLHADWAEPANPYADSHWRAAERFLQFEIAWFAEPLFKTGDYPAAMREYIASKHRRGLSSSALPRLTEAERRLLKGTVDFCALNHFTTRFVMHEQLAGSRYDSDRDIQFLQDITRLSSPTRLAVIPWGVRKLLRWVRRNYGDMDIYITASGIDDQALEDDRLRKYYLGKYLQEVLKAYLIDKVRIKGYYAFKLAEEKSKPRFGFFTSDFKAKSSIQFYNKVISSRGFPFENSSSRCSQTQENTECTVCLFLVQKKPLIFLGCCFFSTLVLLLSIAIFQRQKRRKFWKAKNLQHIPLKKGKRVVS

[2] = target: T1, human beta-Klotho (KLB); test: BLI off-rate screening, mAb captured, KLB analyte;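 also: Off-rate taken from the dissociation phase, biosensors held in D-PBS with 0.1% BSA over 1800 s, antibody supernatants diluted to 25 µg/mL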

Row | Binder | Mean E max (%) [1] [%] | Mean EC50 [1] [pM] | koff [2] [s⁻¹]
1 | B1 | 98 | 91 | 0.00017
2 | B2 | 109 | 146 | 3.6e-05
3 | B3 | 97 | 98 | 3.7e-05
4 | B4 | 110 | 133 | 1.3e-05
5 | B5 | 110 | 150 | 8.3e-05
6 | B6 | 105 | 113 | 0.00029
7 | B7 | 100 | 143 | 4.9e-05
8 | B8 | 97 | 126 | 8.4e-05
9 | B9 | 100 | 151 | 1.7e-05
10 | B10 | 113 | 126 | 1.8e-05
11 | B11 | 98 | 114 | 4e-05
12 | B12 | 92 | 126 | 0.00028
13 | B13 | 106 | 151 | 2e-05
14 | B14 | 95 | 99 | 0.00018
15 | B15 | 111 | 122 | 4e-06
16 | B16 | 103 | 153 | 0.00015
17 | B17 | 107 | 147 | 0.00044
18 | B18 | 106 | 111 | 9e-05
19 | B19 | 100 | 131 | 4.4e-05
20 | B20 | 99 | 88 | 3.1e-05

Row | Binder | Mean E max (%) [1] [%] | Mean EC50 [1] [pM] | koff [2] [s⁻¹]
21 | B21 | 112 | 147 | 4.7e-05
22 | B22 | 109 | 134 | 8.7e-05
23 | B23 | 104 | 129 | 0.0001
24 | B24 | 106 | 141 | 3.8e-05
25 | B25 | 105 | 121 | 0.00013
26 | B26 | 100 | 109 | 1.3e-05
27 | B27 | 105 | 118 | 1.1e-05
28 | B28 | 103 | 107 | 1.8e-05
29 | B29 | 89 | 132 | 0.0002
30 | B30 | 91 | 244 | 6.3e-05
31 | B31 | 99 | 109 | 3.2e-05
32 | B32 | 110 | 139 | 2e-05
33 | B33 | 104 | 128 | 3.5e-05
34 | B34 | 109 | 123 | 4.7e-05
35 | B35 | 107 | 108 | 7.2e-05
36 | B36 | 99 | 139 | 4.6e-05
37 | B37 | 100 | 131 | 0.00024
38 | B38 | 111 | 141 | 1.7e-05
39 | B39 | 97 | 95 | 2.4e-05

Source: patent US20220010021A1 (Sanofi, published 2022)
